{"source": "paper PMC6383945", "about": "“Elk1 affects katanin and spastin proteins via differential transcriptional and post-transcriptional regulations”", "binders": {"B1": {"name": "KATNA1 UTR1_Mut (dsDNA)", "DNA 1": "CGAGGTCGTCCCCGGTGTTAAGGATGACCCTGGCGGGTTTGT", "DNA 2": "ACAAACCCGCCAGGGTCATCCTTAACACCGGGGACGACCTCG"}, "B2": {"name": "KATNA1 Promoter_Mut (dsDNA)", "DNA 1": "AGGGTGGAGATTGAGACCAAGAAGGACCCTGTGCAGTACATAT", "DNA 2": "ATATGTACTGCACAGGGTCCTTCTTGGTCTCAATCTCCACCCT"}, "B3": {"name": "KATNA1 Promoter_WT (-428/-419) (dsDNA)", "DNA 1": "AGGGTGGAGATTGAGACTGGAGGAAGCCCTGTGCAGTACATAT", "DNA 2": "ATATGTACTGCACAGGGCTTCCTCCAGTCTCAATCTCCACCCT"}, "B4": {"name": "KATNA1 UTR2_WT (+253/+262) (dsDNA)", "DNA 1": "GACTGGGTCAGGCCCTCCTTCCTCGCTGCCGGGATCTCCACTC", "DNA 2": "GAGTGGAGATCCCGGCAGCGAGGAAGGAGGGCCTGACCCAGTC"}, "B5": {"name": "KATNA1 UTR1_WT (+113/+122) (dsDNA)", "DNA 1": "CGAGGTCGTCCCCGGCACCGGAAGTGACCCTGGCGGGTTTGT", "DNA 2": "ACAAACCCGCCAGGGTCACTTCCGGTGCCGGGGACGACCTCG"}, "B6": {"name": "KATNA1 UTR2_Mut (dsDNA)", "DNA 1": "GACTGGGTCAGGCCCTCTCCTTCTATTGCCGGGATCTCCACTC", "DNA 2": "GAGTGGAGATCCCGGCAATAGAAGGAGAGGGCCTGACCCAGTC"}}, "target": "T1, Elk1-db (ETS DNA-binding domain) (Homo sapiens, UniProt P19419 1-96)", "T1 sequence": "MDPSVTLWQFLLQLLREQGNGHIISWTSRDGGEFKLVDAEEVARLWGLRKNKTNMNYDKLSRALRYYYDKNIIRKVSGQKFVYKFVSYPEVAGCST", "test": "EMSA; 10 mM Tris pH 7.5, 50 mM KCl, 1 mM DTT, 1 ug poly(dI-dC), 5% glycerol, 1 mM EDTA, 0.3% BSA, protease inhibitors; 20 fmol probe, 300 ng Elk1-db; 20 min room temperature; 6% native PAGE in 0.5X TBE at 4 C", "conditions": "protein: recombinant; tags: 6xHis; label: 3' biotin on both strands; blunt before labelling"}
{"binder": "B1", "values": [{"measurement": "binding result", "value": "no binding"}]}
{"binder": "B2", "values": [{"measurement": "binding result", "value": "no binding"}]}
{"binder": "B3", "values": [{"measurement": "binding result", "value": "no binding"}]}
{"binder": "B4", "values": [{"measurement": "binding result", "value": "no binding"}]}
{"binder": "B5", "values": [{"measurement": "binding result", "value": "binds"}]}
{"binder": "B6", "values": [{"measurement": "binding result", "value": "no binding"}]}
